Reference: US6919434

Molecular target: the molecule itself
Test: SDS-PAGE under reducing and non-reducing conditions (60 kD against 120 kD)
Method: The two protein peaks with OCIF activity (peaks 6 and 7) were subjected to SDS-polyacrylamide gel electrophoresis under reducing and non-reducing conditions. Briefly, 20 μL of each peak fraction was concentrated under vacuum and dissolved in 1.5 μL of 10 mM Tris-HCl, pH 8, 1 mM EDTA, 2.5% SDS, 0.01% bromophenol blue, and incubated at 37° C. overnight under non-reducing conditions or under reducing conditions (with 5% of 2-mercaptoethanol). Each 1.0 μL of sample was then analyzed by SDS-polyacrylamide gel electrophoresis with a gradient gel of 10–15% acrylamide (Pharmacia Co.) and an electrophoresis-device (Fast System, Pharmacia Co.). The following molecular weight marker proteins were used to calculate molecular weight: phosphorylase b (94 kD), bovine serum albumin (67 kD), ovalbumin (43 kD), carbonic anhydrase (30 kD), trypsin inhibitor ([…]), and lactalbumin (14.4 kD). After electrophoresis, protein bands were visualized by silver stain using Phast Silver Stain Kit.

B1: osteoclastogenesis inhibitory factor (OCIF) (other)
chain: ETFPPKYLHYDEETSHQLLCDKCPPGTYLKQHCTAKWKTVCAPCPDHYYTDSWHTSDECLYCSPVCKELQYVKQECNRTHNRVCECKEGRYLEIEFCLKHRSCPPGFGVVQAGTPERNTVCKRCPDGFFSNETSSKAPCRKHTNCSVFGLLLTQKGNATHDNICSGNSESTQKCGIDVTLCEEAFFRFAVPTKFTPNWLSVLVDNLPGTKVNAESVERIKRQHSSQEQTFQLLKLWKHQNKDQDIVKKIIQDIDLCENSVQRHIGHANLTFEQLRSLMESLPGKKVGAEDIEKTIKACKPSDQILKLLSLWRIKNGDQDTLKGLMHALKHSKTYHFPKTVTQSLKKTIRFLHSFTMYKLYQKLFLEMIGNQVQSVKISCL
notes: Secreted glycoprotein, present as a 60 kD monomer and a 120 kD homodimer under non-reducing conditions; Natural OCIF from IMR-90 medium coated the plates in the hybridoma ELISA; Recombinant OCIF was the standard in the polyclonal EIA; Unaltered OCIF in 293/EBNA conditioned medium was used in the western blot; also called nOCIF; natural OCIF
- binding result: binds
